Test results: publication PMC4067145

How the values were obtained:
U1A;U2A′ LRR domain [1] = target: T1, U1A;U2A′ LRR domain (human;human, UniProt P09012;P09661 1-282;1-180, |); assay: fluorescence titration
U2B″;U2A′ LRR domain = U2B″;U2A′ LRR domain (human;human, UniProt P08579;P09661 1-225;1-180, |); assay: fluorescence titration
U2B″ [2] = target: T2, U2B″ (human, UniProt P08579 1-225); assay: fluorescence titration
U1A [3] = target: T3, U1A (human, UniProt P09012 1-282); assay: fluorescence titration
T3 sequence (P09012 whole entry): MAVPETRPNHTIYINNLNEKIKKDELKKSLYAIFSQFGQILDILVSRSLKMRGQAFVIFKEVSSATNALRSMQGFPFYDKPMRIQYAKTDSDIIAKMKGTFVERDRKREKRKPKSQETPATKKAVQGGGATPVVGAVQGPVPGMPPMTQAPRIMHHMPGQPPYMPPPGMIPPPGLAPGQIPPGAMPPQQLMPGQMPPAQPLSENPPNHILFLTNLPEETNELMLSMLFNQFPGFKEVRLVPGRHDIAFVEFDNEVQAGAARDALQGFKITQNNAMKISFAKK

U1A [4] = target: T3, U1A; assay: ITC
U2B″ [5] = target: T2, U2B″; assay: ITC
U1A;U2A′ LRR domain [6] = target: T1, U1A;U2A′ LRR domain; assay: ITC
U1A [7] = target: T3, U1A; assay: ITC; remark: listed apart in the source
U2B″ [8] = target: T2, U2B″; assay: ITC; remark: listed apart in the source
U1A;U2A′ LRR domain [9] = target: T1, U1A;U2A′ LRR domain; assay: fluorescence titration; remark: listed apart in the source

T1 sequence (P09012 whole entry, chain 1 of 2, the tested form may be a part): as the sequence (P09012 whole entry) above
T1 sequence (P09661 1-180, chain 2 of 2): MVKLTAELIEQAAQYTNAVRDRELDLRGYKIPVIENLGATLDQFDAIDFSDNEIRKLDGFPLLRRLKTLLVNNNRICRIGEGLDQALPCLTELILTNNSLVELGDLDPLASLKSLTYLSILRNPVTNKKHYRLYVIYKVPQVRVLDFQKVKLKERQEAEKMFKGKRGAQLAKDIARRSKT
T2 sequence (P08579 whole entry): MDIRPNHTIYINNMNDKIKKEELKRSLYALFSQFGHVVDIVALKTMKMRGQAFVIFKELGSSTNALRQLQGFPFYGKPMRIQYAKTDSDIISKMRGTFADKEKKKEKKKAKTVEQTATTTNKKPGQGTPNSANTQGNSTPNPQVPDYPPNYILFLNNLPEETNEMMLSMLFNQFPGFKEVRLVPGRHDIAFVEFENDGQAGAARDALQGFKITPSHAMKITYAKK
U2B″;U2A′ LRR domain, sequence (P08579 whole entry, chain 1 of 2, the tested form may be a part): as the sequence (P08579 whole entry) above
U2B″;U2A′ LRR domain, sequence (P09661 1-180, chain 2 of 2): as the sequence (P09661 1-180, chain 2 of 2) above

GGGCCCGGCAUUGCACCUCGCCGGGUCC (structured_RNA) [FAM-SLII (U1 snRNA stemloop II)]
binding signal (U1A;U2A′ LRR domain [1]): 7.3 ± 1.3 alpha (linkage parameter, fold)
binding signal (U2B″;U2A′ LRR domain): 15.8 ± 1.6 alpha (linkage parameter, fold)
Kd (U2B″ [2]): 15 nM
Kd (U1A [3]): 0.33 nM

GGGCACAUUGCACCUCGUGUCCAGACUUCGGUC (structured_RNA) [SLII ITC construct]
Kd (U1A [4]): < 7 nM
Kd (U2B″ [5]): 92 nM
binding signal (U1A;U2A′ LRR domain [6]): 1.4 ± 7.9 alpha (linkage parameter, fold)

GGAGUUUUCCAGGACGUAUUGCAGUACCUCGUCCUGG (structured_RNA) [SLIV ITC construct]
Kd (U1A [7]): 100 nM
Kd (U2B″ [8]): 2.3 nM
binding signal (U1A;U2A′ LRR domain [6]): 34 ± 17 alpha (linkage parameter, fold)

GGGCCCGGUAUUGCAGUACCGCCGGGUCC (structured_RNA) [FAM-SLIV (U2 snRNA stemloop IV)]
binding signal (U2B″;U2A′ LRR domain): 139 ± 49 alpha (linkage parameter, fold)
Kd (U2B″ [2]): 17 nM
Kd (U1A [3]): 58 nM
binding signal (U1A;U2A′ LRR domain [9]): 89 ± 11 alpha (linkage parameter, fold)
